From PMC11375770, “Fragment-Based Interrogation of the 14–3–3/TAZ Protein–Protein Interaction” (Biochemistry, 2024)
Where no end group is shown, it is not given here. [ ]: non-standard residue; d: D form. pS = N[C@@H](COP(=O)(O)O)C(=O)O

Tests used:
14-3-3ζ = target: T1, 14-3-3ζ (Homo sapiens, UniProt P63104); test: MST dose-response; also DSF and WaterLOGSY NMR with the TAZ peptide complex; type: binding
T1 construct: gene YWHAZ; with ERα-derived phosphopeptide (similar Kd with TAZpS89 peptide)
T1 sequence (P63104 1-245): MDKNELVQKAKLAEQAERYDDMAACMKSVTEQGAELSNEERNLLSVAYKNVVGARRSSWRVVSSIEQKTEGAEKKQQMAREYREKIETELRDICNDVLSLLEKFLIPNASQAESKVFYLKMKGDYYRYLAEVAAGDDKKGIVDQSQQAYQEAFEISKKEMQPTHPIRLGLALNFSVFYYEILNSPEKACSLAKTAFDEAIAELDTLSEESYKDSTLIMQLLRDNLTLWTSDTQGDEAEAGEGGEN
T1 sequence (P03372 1-595 partner): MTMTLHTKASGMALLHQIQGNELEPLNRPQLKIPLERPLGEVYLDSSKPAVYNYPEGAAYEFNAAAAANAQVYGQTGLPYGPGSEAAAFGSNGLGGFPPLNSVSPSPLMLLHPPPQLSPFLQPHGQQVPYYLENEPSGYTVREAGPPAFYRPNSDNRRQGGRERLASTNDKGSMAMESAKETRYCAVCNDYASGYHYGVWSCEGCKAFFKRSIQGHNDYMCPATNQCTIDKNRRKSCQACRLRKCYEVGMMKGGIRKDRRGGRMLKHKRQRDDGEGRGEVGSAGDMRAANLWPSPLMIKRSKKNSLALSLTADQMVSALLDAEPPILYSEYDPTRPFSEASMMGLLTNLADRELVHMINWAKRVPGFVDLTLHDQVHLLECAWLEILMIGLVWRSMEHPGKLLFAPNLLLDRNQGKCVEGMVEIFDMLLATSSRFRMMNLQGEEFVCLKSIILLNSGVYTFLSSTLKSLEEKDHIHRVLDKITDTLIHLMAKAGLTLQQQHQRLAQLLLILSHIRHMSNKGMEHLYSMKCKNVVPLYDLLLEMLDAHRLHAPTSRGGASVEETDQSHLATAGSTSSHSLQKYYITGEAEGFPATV

[1] = target: T2, 14-3-3σΔC (C-terminally truncated after T231) (human, UniProt P31947 1-231); test: crystal structure; 14-3-3σΔC mixed 1:2 with the peptide, sitting drop, 0.095 M Hepes pH 7.5, PEG 400 26%, 0.19 M CaCl2, 5% glycerol; crystals soaked with 10 mM TCF199; conditions: both partners purified
T2 construct: also called 14-3-3sigma
T2 sequence (looked up): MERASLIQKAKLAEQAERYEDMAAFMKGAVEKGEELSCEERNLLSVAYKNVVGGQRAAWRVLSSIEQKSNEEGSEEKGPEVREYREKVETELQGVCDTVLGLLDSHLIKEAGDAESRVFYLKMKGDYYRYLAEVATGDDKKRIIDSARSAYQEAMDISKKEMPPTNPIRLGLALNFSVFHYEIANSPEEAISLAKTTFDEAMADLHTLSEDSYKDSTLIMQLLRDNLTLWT

[2] = target: T3, 14-3-3ζ labelled with NT647-NHS dye (human, UniProt P63104 1-245, NT647-NHS dye (Monolith Protein Labeling Kit RED-NHS); labelled residues not stated); test: MST; TAZpS89 peptide titrated against a fixed concentration of NT647-labelled 14-3-3ζ; DPBS with 0.05% Tween20, 25 °C; apparent Kd; absence of fragment; conditions: both partners purified
T3 construct: Same construct as m1, with the fluorescent dye for MST; also called labeled 14-3-3ζ; source: E. coli BL21 (DE3), pProEX HTb plasmid, purified (Ni2+-NTA), labelled with Monolith Protein Labeling Kit RED-NHS
T3 sequence (looked up): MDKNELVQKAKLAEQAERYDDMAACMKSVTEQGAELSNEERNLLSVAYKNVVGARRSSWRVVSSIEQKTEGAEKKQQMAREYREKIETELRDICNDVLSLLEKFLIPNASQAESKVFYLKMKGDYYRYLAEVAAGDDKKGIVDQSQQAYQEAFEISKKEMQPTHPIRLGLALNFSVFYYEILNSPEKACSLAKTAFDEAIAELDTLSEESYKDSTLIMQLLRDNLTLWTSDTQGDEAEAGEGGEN

[3] = target: T3, 14-3-3ζ labelled with NT647-NHS dye; test: MST; TAZpS89 peptide titrated against a fixed concentration of NT647-labelled 14-3-3ζ; DPBS with 0.05% Tween20, 25 °C; apparent Kd; presence of 1 mM fragment TCF199; conditions: both partners purified

Molecule: O=C(Nc1ccccc1)OCC12CCCCC1NCCC2 (stereo not shown) [TCF199]
- Kd (14-3-3ζ): 112000 ± 77000 nM

B1: TAZpS89 peptide (peptide)
peptide: QHVRSH[pS]SPASLQ
notes: TAZ-derived peptide surrounding phosphorylated Ser89; The methods of crystallisation say only 'the peptide'; also called TAZ-derived peptide; TAZ peptide; source: synthetic peptide (bought: Caslo, Denmark)
- binding result [1]: binds
- Kd [2]: 1380 nM
- Kd [3]: 40 nM
